Data reported in the nanobody polyreactivity screen of Harvey et al. (2022).

Test: yeast display, Sf9 membrane polyspecificity reagent, FACS + sequencing; frameworks hold sequencing errors
How it was run: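 Genes from sorted yeast were amplified by colony PCR, read by MiSeq 2 × 250 sequencing and filtered on CDR length. These cells carried a synthetic nanobody library in Saccharomyces cerevisiae BJ5465 and were sorted by FACS into low and high (top ~1%) gates on anti-HA and streptavidin fluorescence. Polyreactivity is labelled according to the gate of origin.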

Sequence	polyreactivity (PSR sort gate)
QVQLVESGGGLVQAGGSLRLSCAASVRIFSGYAMGWYRQAPGKERELVAAISQRGGSTTYADSVKGRFTISRDNAKNTVYLQMNSLKPEDTAVYYCAKRYTYPSGYDYWGQGTQVTVSS	low polyreactivity
QVQLVESGGGLVQAGGSLRLSCAASVRIFVYYAMGWYRQAPGKERELVASISYSGASTYYADSVKGRFTISRDNAKKTVYLQMNSLKPEDTAVYYCNTDGDDFFHVIYDYWGQGTQVTVSS	low polyreactivity
QVQLVESGGGLVQAGGSLRLSCAASVRIYGSNVMGWYRQAPGKERELVASISSGGTTYYADSVKGRFTISRDNAKNTVYLQMNSLKPEDTAVYYCAKQWTRIYQYRWYPGTRTGYDYWGQGTQVTVSS	high polyreactivity
QVQLVESGGGLVQAGGSLRLSCAASVRTFYRYAMGGYRQAPGKERELDAGISWRGGSTYYADSVKGRFTISRDNAKNTVYLQMNSLKPEDTAVYYCNAVTTPARTRLFKTVPYEYWGQGTQVTVSS	high polyreactivity
QVQLVESGGGLVQAGGSLRLSCAASVRTFYYYAMGWYRQAPGKERELVAAIRWSTGSTYYADSVKGRFTISRDNAQNTVYLQMNSLKPEDTAVYYCAADTWYIQWGYYWGQGTQVTVSS	low polyreactivity
QVQLVESGGGLVQAGGSLRLSCAASVRTMRTYTMGWYRQAPGIERELVAAISSSDDSTYYADSVKGRFTISRDNEKNTVYLQMNSLKPEDTAVYYCAKDGLYPTEYGYWGQGTQVTVSS	high polyreactivity
QVQLVESGGGLVQAGGSLRLSCAASVRTSSKYALGWYRQAPGKERELVAGISASGTRTYYADSVKGRFTISRDNAKNTVYLQMNSLKPEDTAVYYCATSFFWYYYWGQGTQVTVSS	high polyreactivity
QVQLVESGGGLVQAGGSLRLSCAASVRTVDSYTMGWYRQAPGKERELVAAIRSSGGRTYADSVKGRFTISRDNAKNTVYLQMNSLKPEDTAVYYCAAARSYWAKYYYWGQGTQVTVSS	high polyreactivity
QVQLVESGGGLVQAGGSLRLSCAASVSIFETYAMGWSRQAPGKERELDAAISSSGGTTYYADSVKGRFTISRDTAKNTVYLQMNSLKPEDTAVYYCAARSAATHWTFLFYYDFDYWGQGTQVTVSS	low polyreactivity
QVQLVESGGGLVQAGGSLRLSCAASVSIFFSYAMGWYRQAPGKERELVASITWSGDTTYYADSVKGRFTISRDNAKNTVYLQMNSLKPEDTAVYYCAAVNRGGYDYWGQGTQVTVSS	low polyreactivity
QVQLVESGGGLVQAGGSLRLSCAASVSIFGSNAMRWYRQAPGKERELVAVITNGGRTYYADSVKGRFTISRDNAKNTVFLQMNSLKPEDTAVYYCAASRVYGWYGSYSTYGSWGQGTQVTVSS	high polyreactivity
QVQLVESGGGLVQAGGSLRLSCAASVSIFGYNTMGRYRQAPGKERELVARIRASGGSTYYADSVKGRFTISRDNAKNTVYLQMNSLKPEDTAVYYCAKYLRGSWVRQFGSTYDYWGQGTQVTVSS	high polyreactivity
QVQLVESGGGLVQAGGSLRLSCAASVSIFISYAMGWYRQAPGKERELVAAISSGGSTNYADSVKGRFTISRDNAKNTVYLQMNSLKPEDTAVYYCAADGWLWSFTGDGWWFDDWGQGTQVTVSS	low polyreactivity
QVQLVESGGGLVQAGGSLRLSCAASVSIFRVNTMGWYRQAPGKERELVATISSGARTNYADSVKGRFSISRDNAKNTVYLQMNSLKPEDTAVYYCATRYRRVYTWYDYWGQGTQVTVSS	high polyreactivity
QVQLVESGGGLVQAGGSLRLSCAASVSIFTAYPRGWYRQAPGKERELVAAISNGGSTYYADSVKGRFTISRDNAKNTVYLQMNSLKQEDTAVYYCAADSVQFQPDDEYWGQGTQVTVSS	low polyreactivity
QVQLVESGGGLVQAGGSLRLSCAASVSIFWSYAMGWSRLAPGKERELVASISRSTGRTRYADSVKGRFTFSRDNAKNTVDLQMNSLKPEDTAVYYCNAEKRGQSYRFDYWGQGTQVTVSS	high polyreactivity
QVQLVESGGGLVQAGGSLRLSCAASVSIFYRNARGWYRQEPGKEREMVAAISSSVSSTYYADSVKGRFTISRDNAKNTVYLQMNSLKPEDTAVYYCAARRFQRGGDYFYRYLYDYWGQGTQVTVSS	low polyreactivity
QVQLVESGGGLVQAGGSLRLSCAASVSTFSTYAMGWYRQAPGKERELVAASTWRGSSTYYADSVKGRFTISRDNAKKTVYLQMNSLKPEDTAVYYCAAEDTFYEYYYWGQGTQVTVSS	high polyreactivity
QVQLVESGGGLVQAGGSLRLSCAASVSTFVGNAMGWYRQAPGKERELHAAISSGGSRTNYADSVKGRFTISRDNAKNTVYLQMNSLKPEDTAVYYCIAVFPRWQGSGRFAGGDYWGQGTQVTLSS	high polyreactivity
QVQLVESGGGLVQAGGSLRLSCAASVSTFYRNAMGWYRQAPGKERELVADISASGGSTYYADSVKGRFTISRDNAKNTVYLQMNSLKPEDTAVYYCNALYFYFYNYLTIVYWGQGTQVSVSS	low polyreactivity
QVQLVESGGGLVQAGGSLRLSCAASVSTVSYNAMGWYRQAPGKERELVAAISGSGGTTYYADSVKGRFTISRDNAKNTVYLQMNSLKPEDTAVYYCAARPFRSWRYDYWGQGTQVTVSS	low polyreactivity
QVQLVESGGGLVQAGGSLRLSCAASVYTSSLNAMGWYRQAPGKERELVARITTDGTSTYYADSVKGRFTISRDNAKNTVYLQMNSLKPEDTAVYYCNARYPAYGVRSWYPYAYYYWGQGTQVTVSS	low polyreactivity

Sequence	polyreactivity (PSR sort gate)
QVQLVESGGGLVQAGGSLRLSCAASVYTVVWYAMGWYRPAPGKERELVAVITSGGGTNYADSVKGRFTISRDNAKNTVYLQMNSLKPEDTAVYYCAAVWYTSRQKYDYWGQGTQVTVSS	low polyreactivity
QVQLVESGGGLVQAGGSLRLSCAASYAMGGYRQAPGKERELVAGISRSGDITYYADSVKGRFTISRDNAKNTVYLQMNSLKPEDTAVYYCAARQGRYSGRQLFYWGQGTQVTVSS	high polyreactivity
QVQLVESGGGLVQAGGSLRLSCAATGFIFPKYAMGWYSKAPGKERELVAAISKSGGRTYYADSVKGRFTISRDNAKNTVYLQMNSLKPEDTAVYYCAAEFTYEGDSWGQGTQVTVSS	high polyreactivity
QVQLVESGGGLVQAGGSLRLSCAATGFTFSRNTMGWYRQAPGKERELGARITKRGGTTYYADSVKGRFTISRDNAKNTVYLQMNCLKPEDSAVYYCAAATQNPGSDYWGQGTQVTVSS	high polyreactivity
QVQLVESGGGLVQAGGSLRLSCAATGFTFVYYAMGWYRPAPGKERELVAAISSSGTRTYYADSVKGRFTISRDNAKNTVYLQMNSLKPEDTAVYFCAARNTYRTKVDYWGQGTQVTVSS	high polyreactivity
QVQLVESGGGLVQAGGSLRLSCAATGFTLTRNAMGWYRQAPGKERELVAAISWSGGTTYYADSVKGRFTISRDNAKNTFYLQMNSLKPEDTAVYYCAALRYKLPLGYWGQGTQVTVSS	high polyreactivity
QVQLVESGGGLVQAGGSLRLSCAATGIFVVYAMGWYREAPGKERELVAAIRSDASTNYADSVKGRFTISRDNAKNTVYLQMNILKPEDTAVYYCNTAQLVSDEFDYWGQGTQVTVSS	low polyreactivity
QVQLVESGGGLVQAGGSLRLSCAATGITFIVYVMGWYRQAPGKERELFATISYDDSTYADSVKGSFTISRDNAKNTVYLQMNSLKPEDTAVYYDYWGQGTQVTVSS	low polyreactivity
QVQLVESGGGLVQAGGSLRLSCAATGITFRYNAMGWYRLAPGKERELVAAITFSGGSTYYADSVKGRFTISRDNAKNTVYLQMNSLKPEDTAVYYCAKLGSTSSRGNYDYWGQGTQVTVSS	low polyreactivity
QVQLVESGGGLVQAGGSLRLSCAATGLTLKENVMGWYRQAPGKERELVAAISTGASTYYADSVKGRFTISRDNAKNTVYLQMNSLKPEDTAVYYCAKRVTRCYGYWGQGTQVTVSS	high polyreactivity
QVQLVESGGGLVQAGGSLRLSCAATGLTVRYYTMGWYRQAPGKERELVASITIRGGSTYYADSVKGRFTISRDNAKNTVYLQMNSLKAEDTAVYYCNTRYGYSFGYWGQGTQVTVSS	high polyreactivity
QVQLVESGGGLVQAGGSLRLSCAATGNTFTYNTMGWYRQAPGKERELVARITFSAGRTYYADSVKGRFTISRDNAKNTVYLQMNSLKPEDTAVYYCAAYSFGLRSYYLYDYWGQGTEVTVSS	high polyreactivity
QVQLVESGGGLVQAGGSLRLSCAATGRIFGQYAMGWYRQAPGKESDFVAVISKRGGRTYYADSVMGRFTISRDNAKNTVYLQMNSLKPEDTAVYYCAAEYYPHDGAQYEYWGQGTQVTVSS	high polyreactivity
QVQLVESGGGLVQAGGSLRLSCAATGRIFHGYAMGWYRQAPGKERELVAAIDEDGGSTYYADSVKGRFTISRDNAKNTVYLQMNSLKPVDTAVYYCNADCSVRLDGFDYWGQGTQVTVSS	low polyreactivity
QVQLVESGGGLVQAGGSLRLSCAATGRIFIDNTMGWYRQAPGKERELVAAISWSGGSTYYADSVKGRFTISRDNAKNTVYLQMNCLKPEDTAVYYCAARRLRSNGRTWAVTYDYWGQGTQVTVSS	low polyreactivity
QVQLVESGGGLVQAGGSLRLSCAATGRIFSFYAMGWYRQAPGKERELVAAITWGDGSTYYAVSVKGRFTISRDNAKNTVYLQMNSLKPEDTAVYYCNKTYIDTTVYDVIMDYWGQGTQVTVSS	low polyreactivity
QVQLVESGGGLVQAGGSLRLSCAATGRISVFYTMRWYRQPPGKATELVAVIRTSVGRTNYADYVKGRFTISRVNAKNTVYLQMNSLKPEDTAVYYCAAGVVSYGYNYYYWGQGTQVTVSS	low polyreactivity
QVQLVESGGGLVQAGGSLRLSCAATGRTFGYSPMGSYRPAPGKERELVAAISRRGGSTYYADSVKGRFIISRDNAKNTVYLQMNSLKPEDTAVYYCAKGHQWGLKGGYDYWGQGTQVTVSS	high polyreactivity
QVQLVESGGGLVQAGGSLRLSCAATGRTFSGNAMGWYRQAPAKERELVAAISRSGGTTYYADSVKGRFTISRDNAKNPVYLQMNSLKPEDTAVYYCNRGWANWLGPDDYWGQGNQVTVSS	high polyreactivity
QVQLVESGGGLVQAGGSLRLSCAATGSIFGIYTMGWDRQAPGKERELVAAIRRSGSTNYADSVKGRFTISRDNEKNTVYLQMNSLKPEDSAVYYCAADALSDEYDYWGQGTQVTVSS	low polyreactivity
QVQLVESGGGLVQAGGSLRLSCAATGSIFGKYAMGWSRQAPGKERELVAVITWSGGSTYYADSVKGRFTISRDNAKNTVYLQMNSLKPEDTAVYYCNAANTGSQDYQSIGYNFNYWGQGTQVTVSS	low polyreactivity
